Experimental data from US20220242962A1 (APTEVO RESEARCH AND DEVELOPMENT, published 2022).
Changes are numbered by the printed parent chain. Names and notes keep the numbering of the source.

T1: Full-length Cyno 4-1BB (cynomolgus monkey, UniProt Q07011 24-255 (human entry))
T1 construct: on Jurkat or CHO cells; also called FOB006; cynomolgus 4-1BB
T1 chain: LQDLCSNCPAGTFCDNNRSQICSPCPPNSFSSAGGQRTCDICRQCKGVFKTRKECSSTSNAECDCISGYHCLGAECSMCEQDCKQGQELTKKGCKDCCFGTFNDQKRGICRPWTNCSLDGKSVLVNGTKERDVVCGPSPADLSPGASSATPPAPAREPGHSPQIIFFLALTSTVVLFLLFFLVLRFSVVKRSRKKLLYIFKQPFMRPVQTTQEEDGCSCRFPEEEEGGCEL

T2: Fc gamma receptor RIIA R167 (human, UniProt P12318 36-218)
T2 construct: soluble SPR analyte
T2 sequence (looked up): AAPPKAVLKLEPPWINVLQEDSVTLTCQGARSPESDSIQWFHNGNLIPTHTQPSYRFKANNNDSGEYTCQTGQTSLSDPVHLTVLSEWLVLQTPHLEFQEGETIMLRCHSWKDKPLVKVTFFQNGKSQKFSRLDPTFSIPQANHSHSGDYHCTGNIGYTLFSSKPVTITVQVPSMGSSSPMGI

T3: Fc gamma receptor RIIA H167 (human, UniProt P12318 36-218)
T3 construct: soluble SPR analyte
T3 sequence (looked up): T2 sequence (looked up) with R132H

T4: Fc gamma receptor RIIB/C (human, UniProt P31994 46-217)
T4 construct: soluble SPR analyte
T4 sequence (looked up): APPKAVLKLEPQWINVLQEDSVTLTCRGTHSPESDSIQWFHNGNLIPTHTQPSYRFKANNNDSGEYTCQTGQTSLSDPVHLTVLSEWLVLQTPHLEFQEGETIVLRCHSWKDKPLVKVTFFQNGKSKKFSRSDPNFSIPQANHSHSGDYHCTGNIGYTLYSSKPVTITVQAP

T5: Full-length Human OX40 (human, UniProt P43489 29-277)
T5 sequence: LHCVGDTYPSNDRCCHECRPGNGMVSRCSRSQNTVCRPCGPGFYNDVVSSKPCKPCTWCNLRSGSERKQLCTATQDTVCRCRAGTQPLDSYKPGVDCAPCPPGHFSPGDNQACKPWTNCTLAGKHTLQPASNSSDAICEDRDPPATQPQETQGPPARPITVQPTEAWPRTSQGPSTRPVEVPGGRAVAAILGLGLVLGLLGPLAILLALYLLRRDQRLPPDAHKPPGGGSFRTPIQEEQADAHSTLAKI

B1: FXX01066 (bispecific antibody)
chain: EVQLVQSGAEVKKPGASVKVSCKASGYTFTSYWMNWVRQAPGQGLEWMGNIYPSGGSTNYAQKFQGRVTMTVDTSTSTVYMELSSLRSEDTAVYYCASFSDGYYAYAMDYWGQGTLVTVSSGGGGSGGGGSGGGGSGGGGSEIVMTQSPATLSLSPGERATLSCRASQSVSSYLNWYQQKPGQAPRLLIYYASRRHTGIPARFSGSGSGTDFTLTISSLQPEDFAVYYCQQGYNLPYTFGQGTKVEIKEPKSSDKTHTCPPCPAPPAAAPSVFLFPPKPKDTLMISRTPEVTCVVVDVSHEDPEVKFNWYVDGVEVHNAKTKPREEQYNSTYRVVSVLTVLHQDWLNGKEYKCAVSNKALPAPIEKTISKAKGQPREPQVYTLPPSRDELTKNQVSLTCLVKGFYPSDIAVEWESNGQPENNYKTTPPVLDSDGSFFLYSKLTVDKSRWQQGNVFSCSVMHEALHNHYTQKSLSLSPGGGGSPSSYVLTQPPSVSVAPGQTARITCGGNNIGSKSVNWFQQKPGQAPVLVVYDDSGRPSGIPERFSGSTSGNTATLTISRVEAGDEADYYCQVWDSSSDHVVFGGGTKLTVLGGGGSGGGGSGGGGSGGGGSQVQLVESGGGVVQPGRSLRLSCAASGFTLSYYGMHWVRQAPGKGLEWVAAISHDGSDKYYADSVKGRFTISRDNSKNTLYLQMNSLRAEDTAVYYCSNDQFDPWGQGTLVTVSSR
notes: ADAPTIR scFv-Fc-scFv, anti-4-1BB (VH-VL) N-terminal, anti-OX40 C-terminal, PAA (del) Fc; also called FX01066
B2: FXX01102 (bispecific antibody)
chain: B1 chain with Q500K, T690R
notes: ADAPTIR anti-4-1BB (HL) x anti-OX40 with Q17K and T86R; PAA (del) Fc; also called FX01102
B3: FXX01111 (bispecific antibody)
chain: B1 chain with I541V, E543N
notes: ADAPTIR anti-4-1BB x anti-OX40, pI variant; PAA (del) Fc
B4: FXX01119 (bispecific antibody)
chain: B1 chain with Q500K, I541V, E543N, T690R
notes: as for B3
B5: FXX01101 (bispecific antibody)
chain: B1 chain with T690R
notes: ADAPTIR anti-4-1BB (HL) x anti-OX40 with T86R; PAA (del) Fc; also called FX01101
B6: FXX01115 (bispecific antibody)
chain: B1 chain with I541V, E543N, T690R
notes: as for B3

Biological target: T1, Full-length Cyno 4-1BB
Experiment: flow cytometry on Jurkat cells transfected with cynomolgus 4-1BB, goat anti-human Fc secondary antibody, MFI (Mean)
Experimental: Serial dilutions of ADAPTIR™ constructs were incubated with transfected target cells and subsequently labelled with a fluorescently-conjugated goat-a-human Fc secondary antibody. […] (See Example 25.)

Binder	EC50 (read off the curve) [nM]
B1	~0.4
B2	~0.3
B3	~0.3
B4	~0.3
B5	~0.3
B6	~0.3

Biological target: T6, Human 4-1BB ECD-AFH (human)
T6 construct: entry includes the tags; also called FOB003; HUMAN CD137 ECD-AVI-FLAG-HIS
Experiment: SPR (Biacore 8K), construct captured, monovalent ECD

Binder	Kd [nM]	koff [s⁻¹]	kon [M⁻¹ s⁻¹]
B1	16	0.0043	270000
B2	16	0.0047	290000
B3	17	0.0045	270000
B4	18	0.0046	260000
B5	17	0.0046	270000
B6	16	0.0041	260000

Biological target: T2, Fc gamma receptor RIIA R167
Experiment: SPR, construct immobilized, receptor injected at 2 uM
Experimental: (§1) Fcγ receptor binding to bispecific proteins was measured by Surface Plasmon Resonance on a Biacore 8K instrument at room temperature. Bispecific proteins with modified Fc regions to reduce binding to Fcγ receptors were directly immobilized on the surface of a CM5 sensor chip to a surface density of 4000 RU. A bispecific ADAPTIR™ protein with a wild type Fc was similarly immobilized to the surface as a positive control and used as a comparator to evaluate the reduction in binding resulting from changes incorporated into the Fc region amino acid sequence. Fcγ receptors (purchased from R&D Systems) were diluted to either 100 nM (FcγRI) or 2 μM (all other Fcγ receptors) in HBS-EP+ buffer before injecting over the surface of the prepared sensor chip at 30 μL/min for 60 seconds. Maximum RU values during association phase of each injection were used to compare the extent of binding of the modified Fc to wild type value and are reported in Table 17 below.

Binder	Max RU value during association [RU]
B1	92
B2	88
B3	86
B4	103
B5	94
B6	89

Biological target: T3, Fc gamma receptor RIIA H167
Experiment: as above
Experimental: as §1

Binder	Max RU value during association [RU]
B1	14
B2	13
B3	13
B4	14
B5	14
B6	12

Biological target: T4, Fc gamma receptor RIIB/C
Experiment: as above
Experimental: as §1

Binder	Max RU value during association [RU]
B1	21
B2	19
B3	20
B4	22
B5	21
B6	19

Biological target: Full-length Human 4-1BB (human, UniProt Q07011 24-255)
Sequence (Q07011 24-255): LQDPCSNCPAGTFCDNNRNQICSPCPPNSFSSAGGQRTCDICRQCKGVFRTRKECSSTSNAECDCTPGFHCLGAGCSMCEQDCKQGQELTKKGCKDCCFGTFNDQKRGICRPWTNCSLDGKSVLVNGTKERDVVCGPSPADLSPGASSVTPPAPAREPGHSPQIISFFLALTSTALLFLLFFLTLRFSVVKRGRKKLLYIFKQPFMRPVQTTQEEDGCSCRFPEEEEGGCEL
Experiment: cell-based or functional assay

Binder	4-1BB Reporter Assay EC50 [nM]	4-1BB Reporter Assay Max induction
B1	0.017	1.37e+06
B2	0.021	1.4e+06
B3	0.019	1.43e+06
B4	0.011	1.37e+06
B5	0.018	1.44e+06
B6	0.018	1.36e+06

Biological target: T5, Full-length Human OX40
Experiment: cell-based or functional assay

Binder	OX40 Reporter Assay EC50 [nM]	OX40 Reporter Assay Max induction
B1	0.021	5.86e+06
B2	0.016	5.78e+06
B3	0.017	6.09e+06
B4	0.012	6.07e+06
B5	0.017	5.89e+06
B6	0.019	6.29e+06
